In article PMC4713135:

Biological target: EGFP-Rab5 (wild type) (UniProt P20339)
Assay: FRET or BRET

Sequence of UniProt P20339 (P20339 whole entry): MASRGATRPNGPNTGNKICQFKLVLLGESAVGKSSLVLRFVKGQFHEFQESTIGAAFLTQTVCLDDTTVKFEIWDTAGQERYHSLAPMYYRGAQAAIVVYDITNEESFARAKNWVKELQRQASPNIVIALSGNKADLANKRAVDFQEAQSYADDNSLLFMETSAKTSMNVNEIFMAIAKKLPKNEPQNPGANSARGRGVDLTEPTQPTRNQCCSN

B1: mRFP-DRG2 (human DRG2) (natural protein)
chain: MGILEKISEIEKEIARTQKNKATEYHLGLLKAKLAKYRAQLLEPSKSASSKGEGFDVMKSGDARVALIGFPSVGKSTFLSLMTSTASEAASYEFTTLTCIPGVIEYKGANIQLLDLPGIIEGAAQGKGRGRQVIAVARTADVIIMMLDATKGEVQRSLLEKELESVGIRLNKHKPNIYFKPKKGGGISFNSTVTLTQCSEKLVQLILHEYKIFNAEVLFREDCSPDEFIDVIVGNRVYMPCLYVYNKIDQISMEEVDRLARKPNSVVISCGMKLNLDYLLEMLWEYLALTCIYTKKRGQRPDFTDAIILRKGASVEHVCHRIHRSLASQFKYALVWGTSTKYSPQRVGLTHTMEHEDVIQIVKK
How did the FRET efficiency turn out when B1 was run?
Its FRET efficiency is 10%.
